# Measurements published in IntAct's records for PubMed 15350218.
# B1: Synaptotagmin-2 (Rattus norvegicus (Rat)), P29101 (parent)
# chain: MRNIFKRNQEPIVAPATTTATMPLAPAAPADNSTESTGTGESQEDMFAKLKDKFFNEINKIPLPPWALIAMAVVAGLLLLTCCFCICKKCCCKKKKNKKEKGKGMKNAMNMKDMKGGQDDDDAETGLTEGEGEGEEEKEPENLGKLQFSLDYDFQANQLTVGVLQAAELPALDMGGTSDPYVKVFLLPDKKKKYETKVHRKTLNPAFNETFTFKVPYQELGGKTLVMAIYDFDRFSKHDIIGEVKVPMNTVDLGQPIEEWRDLQGGEKEEPEKLGDICTSLRYVPTAGKLTVCILEAKNLKKMDVGGLSDPYVKIHLMQNGKRLKKKKTTVKKKTLNPYFNESFSFEIPFEQIQKVQVVVTVLDYDKLGKNEAIGKIFVGSNATGTELRHWSDMLANPRRPIAQWHSLKPEEEVDALLGKNK
# Variants of: B1
# Settings: with wnk1_rat Wnk1, Q9JIH7
# wnk1_rat Wnk1, Q9JIH7, sequence (Q9JIH7 whole entry): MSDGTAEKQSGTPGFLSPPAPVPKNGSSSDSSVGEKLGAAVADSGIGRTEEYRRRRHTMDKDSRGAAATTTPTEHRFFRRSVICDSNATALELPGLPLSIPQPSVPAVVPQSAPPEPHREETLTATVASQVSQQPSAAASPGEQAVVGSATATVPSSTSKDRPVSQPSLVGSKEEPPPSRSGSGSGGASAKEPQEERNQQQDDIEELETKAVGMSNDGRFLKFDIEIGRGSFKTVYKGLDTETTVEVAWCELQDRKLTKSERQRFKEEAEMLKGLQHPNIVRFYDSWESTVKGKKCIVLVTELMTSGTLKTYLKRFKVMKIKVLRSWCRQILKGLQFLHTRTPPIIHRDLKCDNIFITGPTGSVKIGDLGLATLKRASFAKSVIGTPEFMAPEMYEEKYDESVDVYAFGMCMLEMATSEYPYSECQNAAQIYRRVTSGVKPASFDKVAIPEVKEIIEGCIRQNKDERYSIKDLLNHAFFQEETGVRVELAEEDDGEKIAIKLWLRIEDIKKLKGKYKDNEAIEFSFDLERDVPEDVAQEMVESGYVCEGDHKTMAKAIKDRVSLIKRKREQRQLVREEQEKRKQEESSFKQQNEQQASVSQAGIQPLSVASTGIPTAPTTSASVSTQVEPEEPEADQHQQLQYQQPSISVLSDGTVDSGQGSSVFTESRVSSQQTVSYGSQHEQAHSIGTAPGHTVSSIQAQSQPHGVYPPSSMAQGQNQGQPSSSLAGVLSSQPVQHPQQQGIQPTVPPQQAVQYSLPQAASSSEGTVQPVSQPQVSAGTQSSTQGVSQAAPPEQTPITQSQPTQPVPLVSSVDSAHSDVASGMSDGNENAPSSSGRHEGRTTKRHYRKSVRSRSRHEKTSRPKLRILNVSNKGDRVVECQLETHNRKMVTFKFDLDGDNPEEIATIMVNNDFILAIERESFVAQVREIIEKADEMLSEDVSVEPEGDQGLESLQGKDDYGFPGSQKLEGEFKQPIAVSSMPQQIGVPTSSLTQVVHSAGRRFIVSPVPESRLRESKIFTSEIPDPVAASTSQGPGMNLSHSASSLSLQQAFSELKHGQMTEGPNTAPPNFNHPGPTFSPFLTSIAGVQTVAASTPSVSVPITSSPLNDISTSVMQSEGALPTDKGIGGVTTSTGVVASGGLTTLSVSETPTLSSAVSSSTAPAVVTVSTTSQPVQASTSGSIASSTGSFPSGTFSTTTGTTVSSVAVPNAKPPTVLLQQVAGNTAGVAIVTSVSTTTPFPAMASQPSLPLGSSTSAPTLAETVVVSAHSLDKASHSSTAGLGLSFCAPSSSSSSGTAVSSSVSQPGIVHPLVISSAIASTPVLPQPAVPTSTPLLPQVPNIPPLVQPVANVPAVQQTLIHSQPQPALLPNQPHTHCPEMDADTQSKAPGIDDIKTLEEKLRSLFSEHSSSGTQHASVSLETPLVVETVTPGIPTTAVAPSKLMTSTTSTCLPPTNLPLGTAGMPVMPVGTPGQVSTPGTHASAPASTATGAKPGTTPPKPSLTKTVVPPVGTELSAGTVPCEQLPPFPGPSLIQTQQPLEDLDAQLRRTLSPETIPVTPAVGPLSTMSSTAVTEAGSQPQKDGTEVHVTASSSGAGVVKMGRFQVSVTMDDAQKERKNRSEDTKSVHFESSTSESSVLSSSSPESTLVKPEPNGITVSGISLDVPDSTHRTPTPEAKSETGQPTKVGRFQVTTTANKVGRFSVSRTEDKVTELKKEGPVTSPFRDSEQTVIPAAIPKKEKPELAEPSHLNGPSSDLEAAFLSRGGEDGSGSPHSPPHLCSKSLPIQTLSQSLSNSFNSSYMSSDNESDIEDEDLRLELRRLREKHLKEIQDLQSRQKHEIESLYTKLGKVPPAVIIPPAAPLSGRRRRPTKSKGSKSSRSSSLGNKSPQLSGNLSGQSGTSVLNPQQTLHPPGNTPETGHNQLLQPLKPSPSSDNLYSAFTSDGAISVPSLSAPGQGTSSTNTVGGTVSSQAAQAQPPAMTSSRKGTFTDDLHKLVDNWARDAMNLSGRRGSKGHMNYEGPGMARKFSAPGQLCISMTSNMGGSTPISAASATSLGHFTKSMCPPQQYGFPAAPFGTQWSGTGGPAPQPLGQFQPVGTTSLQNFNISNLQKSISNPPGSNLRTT
row,effect of a mutation on the interaction,Variant
1,decreasing interaction,D231S

# Variants of: B1
# Settings: with wnk1_rat Wnk1, Q9JIH7
# Remark: another data set of the same source
row,effect of a mutation on the interaction,Variant
1,decreasing interaction,D310N
